Patent US20220048967A1 (published 2022)
Numbered stars: 1 amine (or outer) side, 2 acyl side, 3 side chain; on linkers, the order of the positions; unused ones are H or OH. Square brackets hold non-standard residues; d marks the D form. Side chains are listed from the residue outwards. Ends that are not written are not given here. * marks the point of attachment. C20 diacid = O=C(O)CCCCCCCCCCCCCCCCCCC(=O)*; γGlu = O=C(O)[C@H](CCC(=O)[*:2])N[*:1]; AEEA = NCCOCCOCC(=O)O; Aib = CC(C)(N)C(=O)O

B1: Example 88 (peptide)
peptide: YPEGTFTSDYSILLDKK([AEEA-AEEA-γGlu-C20 diacid])AQ[Aib]AFIEYLIEGGPSSGAPPPS-NH2
modifications: N-terminus assumed
SMILES: CC[C@H](C)[C@H](NC(=O)[C@H](CC(C)C)NC(=O)[C@H](Cc1ccc(O)cc1)NC(=O)[C@H](CCC(=O)O)NC(=O)[C@@H](NC(=O)[C@H](Cc1ccccc1)NC(=O)[C@H](C)NC(=O)C(C)(C)NC(=O)[C@H](CCC(N)=O)NC(=O)[C@H](C)NC(=O)[C@H](CCCCNC(=O)COCCOCCNC(=O)COCCOCCNC(=O)CC[C@H](NC(=O)CCCCCCCCCCCCCCCCCCC(=O)O)C(=O)O)NC(=O)[C@H](CCCCN)NC(=O)[C@H](CC(=O)O)NC(=O)[C@H](CC(C)C)NC(=O)[C@H](CC(C)C)NC(=O)[C@@H](NC(=O)[C@H](CO)NC(=O)[C@H](Cc1ccc(O)cc1)NC(=O)[C@H](CC(=O)O)NC(=O)[C@H](CO)NC(=O)[C@@H](NC(=O)[C@H](Cc1ccccc1)NC(=O)[C@@H](NC(=O)CNC(=O)[C@H](CCC(=O)O)NC(=O)[C@@H]1CCCN1C(=O)[C@@H](N)Cc1ccc(O)cc1)[C@@H](C)O)[C@@H](C)O)[C@@H](C)CC)[C@@H](C)CC)C(=O)N[C@@H](CCC(=O)O)C(=O)NCC(=O)NCC(=O)N1CCC[C@H]1C(=O)N[C@@H](CO)C(=O)N[C@@H](CO)C(=O)NCC(=O)N[C@@H](C)C(=O)N1CCC[C@H]1C(=O)N1CCC[C@H]1C(=O)N1CCC[C@H]1C(=O)N[C@@H](CO)C(N)=O
B2: Example 89 (peptide)
peptide: YXXGTFTSDYSILLDKKAQXAFIEYLIEGGPSSGAPPPS
modifications: Aib2; Aad3; K17((2-[2-(2-Amino-ethoxy)-ethoxy]-acetyl)2-(γ-Glu)-CO-(CH2)18-CO2H); Aib20; C-terminal NH2
B3: Example 91 (peptide)
peptide: B2 peptide
modifications: Aib2; γ-Glu3; K17((2-[2-(2-Amino-ethoxy)-ethoxy]-acetyl)2-(γ-Glu)-CO-(CH2)18-CO2H); Aib20; C-terminal NH2
B4: Example 90 (peptide)
peptide: Y[Aib]NGTFTSDYSILLDKK([AEEA-AEEA-γGlu-C20 diacid])AQ[Aib]AFIEYLIEGGPSSGAPPPS-NH2
modifications: N-terminus assumed
SMILES: CC[C@H](C)[C@H](NC(=O)[C@H](CC(C)C)NC(=O)[C@H](Cc1ccc(O)cc1)NC(=O)[C@H](CCC(=O)O)NC(=O)[C@@H](NC(=O)[C@H](Cc1ccccc1)NC(=O)[C@H](C)NC(=O)C(C)(C)NC(=O)[C@H](CCC(N)=O)NC(=O)[C@H](C)NC(=O)[C@H](CCCCNC(=O)COCCOCCNC(=O)COCCOCCNC(=O)CC[C@H](NC(=O)CCCCCCCCCCCCCCCCCCC(=O)O)C(=O)O)NC(=O)[C@H](CCCCN)NC(=O)[C@H](CC(=O)O)NC(=O)[C@H](CC(C)C)NC(=O)[C@H](CC(C)C)NC(=O)[C@@H](NC(=O)[C@H](CO)NC(=O)[C@H](Cc1ccc(O)cc1)NC(=O)[C@H](CC(=O)O)NC(=O)[C@H](CO)NC(=O)[C@@H](NC(=O)[C@H](Cc1ccccc1)NC(=O)[C@@H](NC(=O)CNC(=O)[C@H](CC(N)=O)NC(=O)C(C)(C)NC(=O)[C@@H](N)Cc1ccc(O)cc1)[C@@H](C)O)[C@@H](C)O)[C@@H](C)CC)[C@@H](C)CC)C(=O)N[C@@H](CCC(=O)O)C(=O)NCC(=O)NCC(=O)N1CCC[C@H]1C(=O)N[C@@H](CO)C(=O)N[C@@H](CO)C(=O)NCC(=O)N[C@@H](C)C(=O)N1CCC[C@H]1C(=O)N1CCC[C@H]1C(=O)N1CCC[C@H]1C(=O)N[C@@H](CO)C(N)=O

Each binder was assayed against human GLP-1 receptor (human, UniProt P43220 24-463) (assay: cell-based or functional assay).

Binder | hGLP1R cAMP EC50 ratio | hGLP1R cAMP Rel EC50
B1 | 0.0918 | 0.64 nM
B2 | 0.175 | 0.335 nM
B3 | < 1.08e-05 | > 5000 nM
B4 | 0.11 | 0.532 nM

What follows are binders tested against T1, human GIP receptor (human, UniProt P48546 22-466) (assay: cell-based or functional assay).
T1 sequence (looked up): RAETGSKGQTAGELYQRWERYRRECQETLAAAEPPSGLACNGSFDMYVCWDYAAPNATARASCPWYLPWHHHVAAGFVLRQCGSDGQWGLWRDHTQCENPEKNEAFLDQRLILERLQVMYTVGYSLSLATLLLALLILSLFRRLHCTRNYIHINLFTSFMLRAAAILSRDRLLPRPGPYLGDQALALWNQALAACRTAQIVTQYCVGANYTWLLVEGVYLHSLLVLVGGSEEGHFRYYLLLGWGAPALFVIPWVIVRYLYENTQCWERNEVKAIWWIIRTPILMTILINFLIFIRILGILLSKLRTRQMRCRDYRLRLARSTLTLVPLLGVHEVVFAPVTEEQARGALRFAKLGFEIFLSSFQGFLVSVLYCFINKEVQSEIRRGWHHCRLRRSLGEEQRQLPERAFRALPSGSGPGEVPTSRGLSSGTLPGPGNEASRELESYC

Binder | hGIPR cAMP EC50 ratio | hGIPR cAMP Rel EC50
B1 | 0.392 | 0.475 nM
B2 | 1.57 | 0.119 nM
B3 | 0.0103 | 19.2 nM
B4 | 5.17 | 0.0361 nM
